Measured values as given in US20240209109A1 (CONCEPT TO MEDICINE BIOTECH, published 2024).
Residue numbers refer to the chain shown, from its start.

What was measured:
[1] = target: T1, human CD40 on cells (human, UniProt P25942 21-277); experiment: FACS on Jurkat cells overexpressing human CD40, PE anti-human IgG, MFI
T1 construct: whole, on cells; also called cell surface CD40; Jurkat-CD40
Experimental: To evaluate their binding affinity to cell surface CD40, chimeric anti-CD40 monospecific antibodies were tested in Jurkat cell lines that overexpressed CD40 by FACS. A total number of 1×10⁵ Jurkat-CD40 cells in each well were incubated with 10-fold serially diluted antibodies starting from 100 nM for 30 minutes at 4° C. in FACS buffer. After wash by FACS buffer, PE conjugated-anti-human IgG antibody was added to each well and incubated at 4° C. for 30 minutes. After wash, MFI of PE was evaluated by MACSQuant Analyzer 16.

[2] = target: T1, human CD40 on cells; experiment: FACS on human dendritic cells, MFI

T1 sequence (P25942 21-277): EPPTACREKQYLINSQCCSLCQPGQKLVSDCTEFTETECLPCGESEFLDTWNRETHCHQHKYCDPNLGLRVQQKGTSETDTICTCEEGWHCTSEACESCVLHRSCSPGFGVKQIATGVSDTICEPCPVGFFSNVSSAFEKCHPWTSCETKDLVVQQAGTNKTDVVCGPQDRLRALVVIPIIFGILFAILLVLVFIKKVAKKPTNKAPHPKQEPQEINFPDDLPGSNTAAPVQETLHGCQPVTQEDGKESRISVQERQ

B1: 2p1294 chimeric monospecific antibody (antibody, V domains shown)
VH: QVQLVESGGGLVQPGGSLRLSCAASGFSFRRYTMSWVRQAPGKGLEWVSAISDNGAITTYTESAQGRFTISRDNAKNTLYLQMNSLKPEDTAVYYCAQGGGSNYYRESWGQGTQVTVSS
notes: chimeric monospecific antibody made from the alpaca VHH
- EC50 (read off the curve) [1]: ~0.2 nM

B2: 42p655 chimeric monospecific antibody (antibody, V domains shown)
VH: B1 VH with Q1A, S28A, A50S, S52T, A56S, T61A, Y95H
notes: as for B1
- EC50 (read off the curve) [1]: ~0.2 nM

B3: b16 (42p155z2)-LALA humanized anti-5T4/CD40 bispecific antibody (bispecific antibody, human IgG1, kappa, L234A L235A)
heavy 1: QVQLVQSGAEVKKPGASVKVSCKASGYAFSSSWMNWVRQAPGQGLEWMGRIYREDGHTNYNGKFKGRVTMTADKSITTAYMELSRLRSDDTAVYYCANGGAMDYWGQGTLVTVSSASTKGPSVFPLAPSSKSTSGGTAALGCLVKDYFPEPVTVSWNSGALTSGVHTFPAVLQSSGLYSLSSVVTVPSSSLGTQTYICNVNHKPSNTKVDKKVEPKSCDKTHTCPPCPAPEAAGGPSVFLFPPKPKDTLMISRTPEVTCVVVDVSHEDPEVKFNWYVDGVEVHNAKTKPREEQYNSTYRVVSVLTVLHQDWLNGKEYKCKVSNKALPAPIEKTISKAKGQPREPQVCTLPPSREEMTKNQVSLSCAVKGFYPSDIAVEWESNGQPENNYKTTPPVLDSDGSFFLVSKLTVDKSRWQQGNVFSCSVMHEALHNHYTQKSLSLSPGK
light: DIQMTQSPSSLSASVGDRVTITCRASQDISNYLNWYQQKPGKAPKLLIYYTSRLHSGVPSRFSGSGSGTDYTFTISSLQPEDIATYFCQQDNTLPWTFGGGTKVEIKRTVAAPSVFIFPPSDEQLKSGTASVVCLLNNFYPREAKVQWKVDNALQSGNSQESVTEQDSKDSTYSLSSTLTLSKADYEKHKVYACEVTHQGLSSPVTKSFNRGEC
heavy 2: not shown
notes: 1+2 b16 format, humanized 5T4 arm; also called b16 (42p15522)-LALA
- EC50 (read off the curve) [2]: ~0.6 nM
